Tests used:
Assay in all cases: cell_activity
[1] = tested on: GmUbi3_T01.1 Right TALEN (synthetic construct); conditions: pair with P1; soybean protoplasts, raw 0.72%; full site SEQ 25
[2] = tested on: GmUbi3_T02.1 Right TALEN (synthetic construct); conditions: pair with P3; soybean protoplasts, raw 1.70%; full site SEQ 26
[3] = tested on: GmUbi3_T02.1 Left TALEN (synthetic construct); conditions: pair with P4; soybean protoplasts, raw 1.70%; full site SEQ 26
[4] = tested on: GmUbi3_T03.1 Right TALEN (synthetic construct); conditions: pair with P5; soybean protoplasts, raw 4.98%; full site SEQ 27
[5] = tested on: GmUbi3_T03.1 Left TALEN (synthetic construct); conditions: pair with P6; soybean protoplasts, raw 4.98%; full site SEQ 27
[6] = tested on: GmUbi3_T01.1 Left TALEN (synthetic construct); conditions: pair with P2; soybean protoplasts, raw 0.72%; full site SEQ 25

With “CCAACATTACACAACT (double strand) [GmUbi3_T1 right half-site]” the activity (% normalized mutation frequency) [1] was 0.91.

“CCTTCACACAACTCAT (double strand) [GmUbi3_T2 right half-site]” showed an activity (% normalized mutation frequency) [2] of 2.76.

“CTTCCATGCTTGTCAT (double strand) [GmUbi3_T2 left half-site]” showed an activity (% normalized mutation frequency) [3] of 2.76.

For “GCCTTGAGCTAGTTGT (double strand) [GmUbi3_T3 right half-site]”, the activity (% normalized mutation frequency) [4] was 8.12.

“TCATCAACTGTGGAGT (double strand) [GmUbi3_T3 left half-site]” was tested, and the activity (% normalized mutation frequency) [5] was 8.12.

For “TGTCCTCCGTCTCCGT (double strand) [GmUbi3_T1 left half-site]”, the activity (% normalized mutation frequency) [6] was 0.91.
